Reference: US20060019335A1, “Compositions and methods to promote c-IAP autodegradation” (priority 2004, published 2006)
Values belong to the molecule of their own block, whether it stands above or below them.

Tests used:
[1] = tested on: c-IAP1; experiment: In vitro ubiquitylation assay of purified c-IAP1 and BIR deletion mutants; type: biochemical, human; conditions: for c-IAP1 auto-ubiquitylation in vitro: full length c-IAP1, UbCH6 as E2, FIG. 7A
Description: In vitro ubiquitylation assays—In vitro ubiquitylation assays were carried out as previously described (29). IAP proteins (200 nM) were incubated with or without Smac polypeptide for 2 hours at 30° C. in a reaction system containing 50 mM Tris-HCl (pH 7.5), 50 mM NaCl, 2 mM Mg-ATP, 20 μM mammalian ubiquitin, 100 nM rabbit ubiquitin-activating enzyme (E1) and 400 nM of recombinant human ubiquitin-conjugating enzymes (E2). The reactions were stopped by adding equal volumes of 2×SDS sample loading buffer followed by Western Blot analysis.
To determine whether Smac promotes auto-ubiquitylation of XIAP, purified XIAP (without tag) was incubated for 2 hours at 30° C. either with or without different concentrations of Smac or with Smac ΔA in the reconstituted ubiquitylation reaction system (Ub Mix) consisting of 50 mM Tris-HCl (pH 7.5), 50 mM NaCl, 2 mM Mg-ATP, 20 μM mammalian ubiquitin, 100 nM rabbit ubiquitin-activating enzyme (E1) and 400 nM UbCH6 (E2). The reactions were stopped by adding equal volumes of 2×SDS sample loading buffer and the products were subjected to SDS-PAGE followed by immunoblotting with anti-XIAP antibody. The purified XIAP was active in directing poly-ubiquitylation. But the auto-ubiquitylation of XIAP was not enhanced by Smac.
Smac ΔA and the peptide Smac-7M were used as negative controls. The reactions were stopped by adding equal volumes of 2×SDS sample loading buffer and the products were subjected to SDS-PAGE followed by immunoblotting with anti-c-IAP1 antibody. The arrows indicate the unmodified full length or deleted c-IAP1.
To verify this, stepwise deletion was performed of the first BIR (ΔBIR1, residues 1-161), the first two BIRs (ΔBIR1-2, residues 1-265), or all the three BIR domains (ΔBIR1-2-3, residues 1-339) from c-IAP1. All these mutants and the full-length wild type c-IAP1 were purified as a non-tagged form by using the pTYB11 Intein system (New England Biolabs).

[2] = target: XIAP (Homo sapiens, UniProt P98170); experiment: Co-transfection of HeLa cells with XIAP and Smac plasmids, Western blot; type: cell-based; design: expressed in transfected cells; host or cells: HeLa; conditions: for XIAP ubiquitylation: co-transfection
Description: Transfection of cultured Cells—HeLa cells were grown in DMEM supplemented with 10% fetal bovine serum. Cells were seeded onto 6-well plates the day before transfection and transfected at 70% confluence by using Lipofectin combined with Plus reagent (Invitrogen) according to the manufacture's protocols. The IAP expression plasmids (3 μg each for c-IAP1, c-IAP2 and XIAP, and 250 ng each for Livin αand Livin β) together with 2.5 μg of Smac expression plasmids or pcDNA3.1(−) blank plasmid were used for single-well transfection in the absence of antibiotics. The cells were harvested 12 hours after the transfection and lysed with 0.5% CHAPS in 20 mM HEPES (pH 7.4), 10 mM KCl, 1 mM MgCl2 and 1 mM DTT. The lysates were centrifuged and the protein concentrations of the supernatants were quantified by the modified Bradford method (36).
Western Blot analysis—Proteins were resolved by SDS-PAGE and transferred to nitrocellulose filters. The filters were blocked with 5% milk and probed with antibodies as indicated. The signals were visualized with the enhanced chemiluminescence method.
To investigate the effect of Smac polypeptide on IAP protein levels, HeLa cells were transfected with the expression vectors for Smac and various IAPs. Briefly, HeLa cells were either transfected with IAP alone (Lane 2, 4 and 6), or together with Smac polypeptide (Lane 3, 5 and 7), or with Smac polypeptide alone (Lane 1). Equal amounts of cell lysates (7 μg) were immunoblotted with either the HRP-conjugated anti-FLAG antibody (shown in the top panel) in order to detect N-terminal 3×FLAG tagged IAPs, or with the anti-c-Myc antibody (bottom panel) to detect C-terminal c-Myc tagged Smac. The ubiquitin fusion technique was used to secure the production of mature Smac protein with the expected N-terminal AVPI motif (6, 37).
It is known that XIAP is ubiquitylated by its own E3 activity when expressed in HEK 293T cells and that this auto-ubiquitylation and subsequent degradation is stimulated by Reaper (26). In the current study, XIAP transiently expressed in HeLa cells was ubiquitylated as well; however, mono-ubiquitylation rather than poly-ubiquitylation of XIAP was the major product (see FIG. 3A). Briefly, XIAP WT or H467A mutant plasmids together with either Smac WT or ΔA, or with pcDNA3.1(−) blank plasmid, were co-transfected into the HeLa cells. As controls, HeLa cells were also transfected with either Smac WT or ΔA plasmids together with the blank p3×FLAG-CMV-7 plasmid. The transfected cells were cultivated either in the absence (see lanes 1-7 of FIG. 3A) or in the presence (see lanes 8-14 of FIG. 3A) of MG132. Equal amounts of soluble proteins (7 μg) from the transfected cells were immunoblotted with either the HRP-conjugated anti-FLAG antibody (see top panel of FIG. 3A) to detect N-terminal 3×FLAG tagged IAPs, or with the anti-c-Myc antibody (see middle panel of FIG. 3A) to detect Smac. The anti-Actin immunoblotting results were to show equal protein loading (see bottom panel of FIG. 3A).

Chain of XIAP (P98170 whole entry): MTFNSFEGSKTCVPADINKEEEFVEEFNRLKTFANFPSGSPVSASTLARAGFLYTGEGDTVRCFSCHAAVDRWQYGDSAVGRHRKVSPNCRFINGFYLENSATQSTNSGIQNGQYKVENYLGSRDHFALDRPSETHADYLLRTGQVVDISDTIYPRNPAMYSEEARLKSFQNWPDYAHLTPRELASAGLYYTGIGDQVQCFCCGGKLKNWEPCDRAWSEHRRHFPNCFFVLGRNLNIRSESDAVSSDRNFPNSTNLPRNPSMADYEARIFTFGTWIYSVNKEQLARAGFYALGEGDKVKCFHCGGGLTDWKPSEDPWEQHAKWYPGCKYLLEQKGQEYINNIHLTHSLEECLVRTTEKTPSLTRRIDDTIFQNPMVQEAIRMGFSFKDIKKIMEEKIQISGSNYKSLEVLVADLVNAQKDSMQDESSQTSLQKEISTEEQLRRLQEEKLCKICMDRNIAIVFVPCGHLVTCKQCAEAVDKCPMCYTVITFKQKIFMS

level of XIAP ([2]; co-expression, absence of MG132): negligible effect
overall amount of XIAP ([2]; co-transfected Smac, FIG. 3A): not significantly affected
XIAP ubiquitylation ([2]; FIG. 3A): still promoted XIAP ubiquitylation
protein level of XIAP ([2]; mature Smac co-expressed, FIG. 1): unaffected
B1: Smac: wild type (WT) Smac polypeptide from Homo sapiens, SEQ ID NO 1, 239 amino acids; second mitochondria-derived activator of caspase (protein, listed as Homo sapiens)
chain: MAALKSWLSRSVTSFFRYRQCLCVPVVANFKKRCFSELIRPWHKTVTIGFGVTLCAVPIAQKSEPHSLSSEALMRRAVSLVTDSTSTFLSQTTYALIEAITEYTKAVYTLTSLYRQYTSLLGKMNSEEEDEVWQVIIGARAEMTSKHQEYLKLETTWMTAVGLSEMAAEAAYQTGADQASITARNHIQLVKLQVEEVHQLSRKAETKLAEAQIEELRQKTQEEGEERAESEQEAYLRED
auto-ubiquitylation activity of c-IAP1 ΔBIR1-2-3 ([1]; all three BIR domains deleted (residues 1-339), FIG. 7A): could no longer be enhanced
auto-ubiquitylation activity of c-IAP1 ΔBIR1 ([1]; first BIR deleted (residues 1-161), FIG. 7A): significantly enhanced
auto-ubiquitylation activity of c-IAP1 ΔBIR1-2 ([1]; first two BIRs deleted (residues 1-265), FIG. 7A): significantly enhanced
c-IAP1 auto-ubiquitylation in vitro [1]: significantly enhanced c-IAP1 auto-ubiquitylation

B2: Smac ΔA: Smac mutant lacking the initial Ala (Ala deletion mutant polypeptide), used as negative control (protein, UniProt Q9NR28 22-239, looked up, variant A1*)
Diablo IAP-binding …: LCVPVVANFKKRCFSELIRPWHKTVTIGFGVTLCVPIAQKSEPHSLSSEALMRRAVSLVTDSTSTFLSQTTYALIEAITEYTKAVYTLTSLYRQYTSLLGKMNSEEEDEVWQVIIGARAEMTSKHQEYLKLETTWMTAVGLSEMAAEAAYQTGADQASITARNHIQLVKLQVEEVHQLSRKAETKLAEAQIEELRQKTQEEGEERAESEQEAYLRED
c-IAP1 auto-ubiquitylation in vitro [1]: failed to promote such auto-ubiquitylation
c-IAP1 auto-ubiquitylation in vitro ([1]; listed as Smac mutant lacking the initial Ala residue): did not promote the E3 activity
E3 activity of c-IAP1ΔBIR1 ([1]; peptides and controls, FIG. 7B): failed to activate c-IAP1
XIAP ubiquitylation ([2]; FIG. 3A): stimulated the auto-ubiquitylation of XIAP and Livin
